These results are taken from the RNAGym collection of RNA variant scans (doi:10.7554/elife.80360).

The chains are these.
B1: HDV Ribozyme (parent)
chain: GGCCGGCAUGGUCCCAGCCUCCUCGCUGGCGCCGGCUGGGCAACAUUCCGAGGGGACCGUCCCCUCGGUAAUGGCGAAUGGGACCCA

The variants in this data set derive from B1. Kind of data set: self-cleavage, relative activity (ratio to wild type); higher = more cleavage; co-transcriptional.
On to G6U C86U, for which the self-cleavage is 0.633.

For G6U G54U, the self-cleavage amounted to 0.643.

As to G6U G54C, the self-cleavage was 0.383.

Take C7A C57U: the self-cleavage is 0.702.

With C7A C57A, the self-cleavage came to 0.597.

Turning to G6U G59U, the self-cleavage was found to be 0.69.

For G6U G59C, the self-cleavage turned out to be 0.475.

For G6U G59A, the self-cleavage came to 0.544.

With C7G A43C, the self-cleavage came to 0.111.

In the case of C7G A43G, the self-cleavage was 0.

Regarding C7A G67U, the self-cleavage was found to be 0.378.

In the case of C7A U20C, the self-cleavage came out at 0.

Regarding C7A U20G, the self-cleavage came to 0.312.

Turning to C7G U46A, the self-cleavage was found to be 0.

Regarding C7G A71U, the self-cleavage is 0.0639.

Consider G6U U23A, for which the self-cleavage was 0.466.

Consider G6U U23C, for which the self-cleavage is 0.312.

C7U A78G: the self-cleavage was determined as 0.375.

Consider C7U A78U, for which the self-cleavage was 0.166.

On to C7G C61U, for which the self-cleavage turned out to be 0.237.

Turning to C7U A51G, the self-cleavage was 0.965.

On to C7G C18A, for which the self-cleavage turned out to be 0.0639.

In the case of C7G C18G, the self-cleavage is 0.

As to C7G A51U, the self-cleavage turned out to be 0.107.

On to C7G A51C, for which the self-cleavage stood at 0.437.

Take C7A A43G: the self-cleavage was found to be 0.

Turning to C7A A45U, the self-cleavage amounted to 0.332.

Regarding C7G C86G, the self-cleavage amounted to 0.378.

Take C7A U65C: the self-cleavage was 0.522.

Regarding C7G U79G, the self-cleavage came out at 0.104.

On to C7G U79C, for which the self-cleavage was found to be 0.0489.

As to C7U A45C, the self-cleavage was determined as 0.119.

Take C7U A45U: the self-cleavage was 0.415.

In the case of C7A G73A, the self-cleavage was 0.106.

In the case of C7A A56G, the self-cleavage was found to be 0.399.

Consider C7A A56C, for which the self-cleavage came out at 0.831.

Turning to G6U G80A, the self-cleavage was determined as 0.104.

For C7A A78C, the self-cleavage was 0.0554.

C7A A78G: the self-cleavage was 0.0875.

In the case of G6U G82C, the self-cleavage came to 0.17.

C7G G55C: the self-cleavage came to 0.214.

For C7G G55U, the self-cleavage amounted to 0.17.

For the variant C7A C58G, the self-cleavage came to 0.705.

For the variant C7A C58U, the self-cleavage was determined as 0.731.

With C7A G53C, the self-cleavage turned out to be 0.38.

In the case of C7A C48A, the self-cleavage turned out to be 0.604.

In the case of C7A C75G, the self-cleavage amounted to 0.225.

For the variant C7A C75U, the self-cleavage was determined as 0.131.

As to C7A C75A, the self-cleavage was found to be 0.0923.

For G6U G11U, the self-cleavage was determined as 0.0361.

As for G6U G11C, the self-cleavage was 0.

Take G6U G40U: the self-cleavage came to 0.633.

Regarding C7A U60G, the self-cleavage was 0.356.

As to C7A U60A, the self-cleavage stood at 0.665.

On to C7A U60C, for which the self-cleavage was 0.712.

Consider C7A G76C, for which the self-cleavage worked out at 0.988.

As to C7G C64U, the self-cleavage amounted to 0.396.

C7G C64A: the self-cleavage amounted to 0.0831.

Turning to C7G C64G, the self-cleavage came to 0.111.

In the case of C7G G31U, the self-cleavage came out at 0.745.

On to C7A U9C, for which the self-cleavage was found to be 0.604.

On to C7A C66G, for which the self-cleavage worked out at 0.243.

On to C7A G31U, for which the self-cleavage came to 1.07.

For the variant C7A G31A, the self-cleavage came out at 0.87.

In the case of C7A G31C, the self-cleavage came to 1.03.

With C7A C49A, the self-cleavage was determined as 0.538.

Regarding C7A C61U, the self-cleavage is 0.441.

As for C7G C22A, the self-cleavage was 0.

As to C7G A78C, the self-cleavage was found to be 0.175.

As for C7G A78U, the self-cleavage amounted to 0.0791.

In the case of C7G A78G, the self-cleavage was found to be 0.0831.

With C7G G74U, the self-cleavage came to 0.0361.

In the case of G6U U9C, the self-cleavage came out at 0.465.

Take G6U U9A: the self-cleavage was found to be 0.623.

In the case of C7A G25U, the self-cleavage was 0.102.

On to C7A G25A, for which the self-cleavage was found to be 0.175.

As to G6U U27A, the self-cleavage came to 0.453.

Take C7G: the self-cleavage amounted to 0.315.

Regarding C7U, the self-cleavage turned out to be 0.86.

Turning to C7A, the self-cleavage worked out at 0.644.

On to C7A G35U, for which the self-cleavage was 0.0906.

As for C7A G35A, the self-cleavage worked out at 0.0841.

C7A G50A: the self-cleavage was determined as 0.527.

For the variant G6U G34U, the self-cleavage turned out to be 0.0755.

Regarding G6U G34A, the self-cleavage stood at 0.208.

With C7G C63G, the self-cleavage amounted to 0.201.

As to C7G C63A, the self-cleavage is 0.172.

For C7G U12C, the self-cleavage came out at 0.111.

As to C7A G38U, the self-cleavage was 0.0346.

With C7A G38A, the self-cleavage stood at 0.0639.

C7G G17U: the self-cleavage is 0.

Regarding C7G G17A, the self-cleavage was 0.

On to G6U G10A, for which the self-cleavage amounted to 0.185.

Regarding C7A G10A, the self-cleavage amounted to 0.0831.

Take C7G G34U: the self-cleavage was found to be 0.0504.

Take C7G G34A: the self-cleavage was 0.115.

Take C7G C24G: the self-cleavage was found to be 0.123.

Take C7G C24A: the self-cleavage turned out to be 0.208.

Take C7G G53C: the self-cleavage turned out to be 0.

As for C7G U37A, the self-cleavage came out at 0.147.

Regarding C7A A51G, the self-cleavage amounted to 0.635.

With C7A A51C, the self-cleavage was determined as 0.609.

As for C7A C15A, the self-cleavage was determined as 0.0415.

In the case of C7A C62A, the self-cleavage is 0.618.

As to C7A C62G, the self-cleavage was determined as 0.0665.

As to C7A C86A, the self-cleavage turned out to be 0.804.

As to C7A C86U, the self-cleavage is 0.831.

With C7A C86G, the self-cleavage came to 0.571.

Consider C7G G25U, for which the self-cleavage is 0.0831.

In the case of C7G C84G, the self-cleavage came out at 0.0665.

On to C7G C84U, for which the self-cleavage worked out at 0.

Consider C7G C49A, for which the self-cleavage was 0.145.

Consider C7G C49G, for which the self-cleavage stood at 0.123.

On to C7G C49U, for which the self-cleavage was found to be 0.237.

Regarding C7A C18G, the self-cleavage is 0.

G6U U69C: the self-cleavage is 0.655.

As for G6U U69G, the self-cleavage turned out to be 0.375.

On to G6U U69A, for which the self-cleavage is 0.415.

Turning to C7G C19U, the self-cleavage amounted to 0.

Take C7G C48A: the self-cleavage was determined as 0.262.

Regarding C7G U47G, the self-cleavage was determined as 0.

With C7U C14A, the self-cleavage was 0.516.

For G6U U47A, the self-cleavage is 0.482.

G6U U47C: the self-cleavage worked out at 0.467.

Turning to C7G A42C, the self-cleavage came to 0.208.

Consider C7A G80C, for which the self-cleavage came out at 0.192.

As for C7A C19U, the self-cleavage was determined as 0.0906.

As for C7G U9A, the self-cleavage was found to be 0.237.

Consider C7G U9G, for which the self-cleavage was determined as 0.831.

As to C7U A83G, the self-cleavage was found to be 0.475.

Turning to C7U A83C, the self-cleavage is 0.287.

Consider C7A U46C, for which the self-cleavage came to 0.453.

For the variant C7G C75A, the self-cleavage was 0.

In the case of C7G C75U, the self-cleavage was 0.

As for C7A C84A, the self-cleavage was 0.519.

Take C7A U69C: the self-cleavage turned out to be 0.617.

For C7A G28U, the self-cleavage was found to be 0.0361.

With C7A A71G, the self-cleavage is 0.584.

Turning to C7A A71C, the self-cleavage worked out at 0.298.

As for C7A A71U, the self-cleavage worked out at 0.462.

Turning to C7G G52A, the self-cleavage was determined as 0.151.

Turning to C7G G29A, the self-cleavage was found to be 0.

Regarding C7G G29U, the self-cleavage was found to be 0.

Take C7A U12C: the self-cleavage amounted to 0.172.

As for C7A U12A, the self-cleavage is 0.0978.

Regarding C7G C14U, the self-cleavage amounted to 0.196.

On to C7G C14A, for which the self-cleavage is 0.0923.

As to C7A U47C, the self-cleavage turned out to be 0.277.

Take C7A U47G: the self-cleavage turned out to be 0.317.

Regarding C7G G35U, the self-cleavage came out at 0.0811.

Consider C7G U72A, for which the self-cleavage stood at 0.0755.

With C7G U72G, the self-cleavage was 0.

With C7G C62U, the self-cleavage is 0.302.

Take C7A C44A: the self-cleavage worked out at 0.0978.

Turning to C7A A87C, the self-cleavage came to 0.514.

For G6U G53U, the self-cleavage amounted to 0.643.

As to C7A U23C, the self-cleavage turned out to be 0.935.

Consider C7A U23A, for which the self-cleavage was 0.739.

Take C7A G82C: the self-cleavage came out at 0.0811.

Regarding C7A G82U, the self-cleavage is 0.256.

Regarding C7A G82A, the self-cleavage is 0.0875.

With C7G G76U, the self-cleavage was determined as 0.237.

In the case of C7G G76A, the self-cleavage is 0.172.

For the variant C7G U20C, the self-cleavage is 0.

For C7G U20G, the self-cleavage came out at 0.145.

With C7G G50U, the self-cleavage is 0.237.

As to C7G G50A, the self-cleavage stood at 0.612.
